The text below walks through data of paper PMC11937253.

The chains are these.
B1: Nanobody B6R-02 (VHH)
VHH: QVQLVESGGGLVQAGGSLRLSCAASGRIFRRNVMGWYRQAPGKEREFVAAITKGGYTNYADSVKGRFTISRDNAKNTVYLQMNSLKPEDTAVYYCAARYFHRKRHKWRHDYWGQGTQVTVSS
B2: Nanobody B6R-06 (VHH)
VHH: QVQLVESGGGLVQAGGSLRLSCAASGRIFRKRNMGWYRQAPGKEREFVASISRGSNTYYADSVKGRFTISRDNAKNTVYLQMNSLKPEDTAVYYCAVWRHRTFVRWKHFDYWGQGTQVTVSS
B3: Nanobody B6R-04 (VHH)
VHH: QVQLVESGGGLVQAGGSLRLSCAASGRIFASDRMGWYRQAPGKEREFVAAISYGSRTNYADSVKGRFTISRDNAKNTVYLQMNSLKPEDTAVYYCAVWAFHRSWKERSHWHDYWGQGTQVTVSS
B4: Nanobody B6R-05 (VHH)
VHH: QVQLVESGGGLVQAGGSLRLSCAASGRIFHPGAMGWYRQAPGKEREFVAGISSGGNTYYADSVKGRFTISRDNAKNTVYLQMNSLKPEDTAVYYCAAPFRWVKATGRFLDYWGQGTQVTVSS
B5: Nanobody B6R-03 (VHH)
VHH: QVQLVESGGGLVQAGGSLRLSCAASGRILHRKGMGWYRQAPGKEREFVAAINKGGSTNYADSVKGRFTISRDNAKNTVYLQMNSLKPEDTAVYYCAVGKKRRTWINRHYDYWGQGTQVTVSS
B6: Nanobody E8L-04 (VHH)
VHH: QVQLVESGGGLVQAGGSLRLSCAASGRIFGRRAMGWYRQAPGKEREFVAAISNGFNTNYADSVKGRFTISRDNAKNTVYLQMNSLKPEDTAVYYCAATVSRRGEQTFFYDYWGQGTQVTVSS
B7: Nanobody E8L-03 (VHH)
VHH: QVQLVESGGGLVQAGGSLRLSCAASGFIFTTRGMGWYRQAPGKEREFVACIFPGSSTNYADSVKGRFTISRDNAKNTVYLQMNSLKPEDTAVYYCAAEGPYRGFNFKKNLYDYWGQGTQVTVSS
B8: Nanobody E8L-08 (VHH)
VHH: QVQLVESGGGLVQAGGSLRLSCAASGFIFTNWGMGWYRQAPGKERELVAAITSGSSTNYADSVKGRFTISRDNAKNTVYLQMNSLKPEDTAVYYCAAIRGFSLIYQFFAQYDYWGQGTQVTVSS
B9: Nanobody E8L-02 (VHH)
VHH: QVQLVESGGGLVQAGGSLRLSCAASGRIFTDSYMGWYRQAPGKEREFVACITTGSSTYYADSVKGRFTISRDNAKNTVYLQMNSLKPEDTAVYYCAARFRYTVQHWFHTKFDYWGQGTQVTVSS
B10: Nanobody E8L-01 (VHH)
VHH: QVQLVESGGGLVQAGGSLRLSCAASGRIFINRVMGWYRQAPGKEREFVAGIAQGGSTNYADSVKGRFTISRDNAKNTVYLQMNSLKPEDTAVYYCAAKFWNWHHDHRGYDYWGQGTQVTVSS
B11: Nanobody E8L-06 (VHH)
VHH: QVQLVESGGGLVQAGGSLRLSCAASGFIFTSTRMGWYRQAPGKEREFVAGISIGGNTNYADSVKGRFTISRDNAKNTVYLQMNSLKPEDTAVYYCAARYYYFHNHNFAYDYWGQGTQVTVSS
B12: Nanobody E8L-07 (VHH)
VHH: QVQLVESGGGLVQAGGSLRLSCAASGSIFKRYKMGWYRQAPGKEREFVACINKGGDTNYADSVKGRFTISRDNAKNTVYLQMNSLKPEDTAVYYCAVKRHAKAYGEFFYDYWGQGTQVTVSS
B13: Nanobody E8L-05 (VHH)
VHH: QVQLVESGGGLVQAGGSLRLSCAASGRIFDTVEMGWYRQAPGKEREFVASISGGDSTYYADSVKGRFTISRDNAKNTVYLQMNSLKPEDTAVYYCAARSARNRWSIIFYDYWGQGTQVTVSS
B14: Nanobody H3L-02 (VHH)
VHH: QVQLVESGGGLVQAGGSLRLSCAASGRIFLHRIMGWYRQAPGKERELVASISRGDNTYYADSVKGRFTISRDNAKNTVYLQMNSLKPEDTAVYYCAAGTGRHKDDHKDYDYWGQGTQVTVSS
B15: Nanobody H3L-03 (VHH)
VHH: QVQLVESGGGLVQAGGSLRLSCAASGRIFFFAKMGWYRQAPGKEREFVASIVYGDITYYADSVKGRFTISRDNAKNTVYLQMNSLKPEDTAVYYCAAKPHWPSRRPRRYDYWGQGTQVTVSS
B16: Nanobody H3L-01 (VHH)
VHH: QVQLVESGGGLVQAGGSLRLSCAASGRIFWWVPMGWYRQAPGKEREFVAGISKGDSTYYADSVKGRFTISRNNAKNTVYLQMNSLKPEDTAVYYCAANPRNNRFRAGVYDYWGQGTQVTVSS
B17: Nanobody M1R-03 (VHH)
VHH: QVQLVESGGGLVQAGGSLRLSCAASGSIFETGAMGWYRQAPGKEREFVAAITGWDTNYADSVKGRFTISRDNAKNTVYLQMNSLKPEDTAVYYCAASHWISFYWEHYHPYDYWGQGTQVTVSS
B18: Nanobody M1R-02 (VHH)
VHH: QVQLVESGGGLVQAGGSLRLSCAASGFIFDHWEMGWYRQAPGKEREFVASISAGLSTNYADSVKGRFTISRDNAKNTVYLQMNSLKPEDTAVYYCAARHFTAVFWKNSYDYWGQGTQVTVSS
B19: Nanobody M1R-05 (VHH)
VHH: QVQLVESGGGLVQAGGSLRLSCAASGFIFYAWHMGWYRQAPGKERELVASIAYGGDTNYADSVKGRFTISRDNAKNTVYLQMNSLKPEDTAVYYCAAVHFTHHKWDQEYDYWGQGTQVTVSS

The target of one assay is MPXV B6R ectodomain, His-tagged recombinant protein (mpox virus (MPXV), isolate MPXV_USA_2022_MA001). Put plainly: SPR; BiaCore T200; […]; 1:1 binding model.
Turning to B1, the Kd (commonly the concentration at which binding is half-saturated) was 14000 nM; the off-rate (koff) (in general, the first-order rate constant of dissociation) was found to be 0.0029 s⁻¹; the kon (as a rule, the second-order rate constant of association) turned out to be 209 M⁻¹ s⁻¹.
As to B2, the Kd is 12.1 nM, the dissociation rate constant (koff) is 0.0056 s⁻¹ and the kon was determined as 462000 M⁻¹ s⁻¹.
For B3 the same measures were 1030 nM, 0.0412 s⁻¹ and 39900 M⁻¹ s⁻¹.
Take B4: the equilibrium dissociation constant (Kd) was 95400 nM, the off-rate (koff) was 0.0008 s⁻¹ and the on-rate (kon) stood at 8.9 M⁻¹ s⁻¹.
As for B5, the Kd was found to be 3180 nM, the off-rate (koff) amounted to 0.349 s⁻¹ and the kon was 110000 M⁻¹ s⁻¹.

Another assay addresses MPXV E8L ectodomain, His-tagged recombinant protein (mpox virus (MPXV), isolate MPXV_USA_2022_MA001). Put plainly: SPR; BiaCore T200; […]; 1:1 binding model. Background: In SPR one partner is held on a chip, and binding of the other changes the refractive index at the surface.
As to B6, the Kd came to 1.77 nM, the koff stood at 0.0015 s⁻¹ and the association rate constant (kon) amounted to 876000 M⁻¹ s⁻¹.
Consider B7, for which the Kd was 5.81 nM, the koff worked out at 0.0034 s⁻¹ and the association rate constant (kon) was found to be 662000 M⁻¹ s⁻¹.
Regarding B8, the Kd came out at 3.11 nM, the koff turned out to be 0.002 s⁻¹ and the association rate constant (kon) was determined as 646000 M⁻¹ s⁻¹.
For B9, the Kd stood at 1.69 nM, the off-rate constant (koff) amounted to 0.0003 s⁻¹ and the kon was 184000 M⁻¹ s⁻¹.
For B10, the dissociation constant (Kd) was 0.66 nM, the koff was determined as 0.0029 s⁻¹ and the on-rate (kon) turned out to be 4.35e+06 M⁻¹ s⁻¹.
In the case of B11, the dissociation constant (Kd) was found to be 11.6 nM, the koff came to 0.0105 s⁻¹ and the association rate constant (kon) was 910000 M⁻¹ s⁻¹.
For B12 the same measures were 3.17 nM, 0.0018 s⁻¹ and 539000 M⁻¹ s⁻¹.
Regarding B13, the equilibrium dissociation constant (Kd) worked out at 2.39 nM, the koff is 0.002 s⁻¹ and the kon was determined as 838000 M⁻¹ s⁻¹.

Another assay concerns the target MPXV H3L ectodomain, His-tagged recombinant protein (mpox virus (MPXV), isolate MPXV_USA_2022_MA001). Put plainly: SPR; BiaCore T200; […]; 1:1 binding model.
With B14, the Kd is 94.8 nM, the off-rate constant (koff) was found to be 0.0725 s⁻¹ and the kon stood at 765000 M⁻¹ s⁻¹.
For B15 the same measures were 35.2 nM, 0.0092 s⁻¹ and 261000 M⁻¹ s⁻¹.
Turning to B16, the Kd worked out at 11.2 nM, the koff worked out at 0.0209 s⁻¹ and the on-rate constant (kon) is 1.87e+06 M⁻¹ s⁻¹.

For another assay, the target named is MPXV M1R ectodomain, His-tagged recombinant protein (mpox virus (MPXV), isolate MPXV_USA_2022_MA001). Put plainly: SPR; BiaCore T200; […]; 1:1 binding model.
As for B17, the Kd came out at 24.9 nM, the koff came to 0.0401 s⁻¹ and the association rate constant (kon) came out at 1.61e+06 M⁻¹ s⁻¹.
Turning to B18, the dissociation constant (Kd) amounted to 23.5 nM, the dissociation rate constant (koff) came out at 0.0016 s⁻¹ and the association rate constant (kon) is 68300 M⁻¹ s⁻¹.
For the molecule B19, the dissociation constant Kd is 85.9 nM, the dissociation rate constant (koff) was 0.0037 s⁻¹ and the kon stood at 42800 M⁻¹ s⁻¹.
